Where a chain is given by its changes, count along the chain named.
T1: mouse CD47 (mouse, UniProt Q61735 19-140, limits assumed)
T1 construct: Soluble analyte in SPR; construct not described
T1 sequence (looked up): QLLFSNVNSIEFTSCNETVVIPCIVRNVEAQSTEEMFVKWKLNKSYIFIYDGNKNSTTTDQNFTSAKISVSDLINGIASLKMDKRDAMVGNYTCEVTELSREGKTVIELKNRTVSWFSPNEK

B1: Decoy polypeptide J (Fc fusion)
chain: EEELQIIQPEKLLLVTVGKTATLHCTITSLLPVGPIQWFRGVGPGRELIYNQRDGPFPRVTTVSDGTKRNNMDFSIRISSITPADVGTYYCVKFRKGTPEDVEFKSGPGTEMALGAKPSDKTHTCPPCPAPEAAGAPSVFLFPPKPKDTLMISRTPEVTCVVVDVSHEDPEVKFNWYVDGVEVHNAKTKPREEQYASTYRVVSVLTVLHQDWLNGKEYKCKVSNKALPAPIEKTISKAKGQPREPQVYTLPPSREEMTKNQVSLTCLVKGFYPSDIAVEWESNGQPENNYKTTPPVLDSDGSFFLYSKLTVDKSRWQQGNVFSCSVMHEALHNHYTQKSLSLSPG
B2: Decoy polypeptide B (Fc fusion)
chain: B1 chain with L31F, E47V
B3: Decoy polypeptide H (Fc fusion)
chain: B1 chain with L31F, Q52A, D54E, P56R, G66L, T98S
B4: Decoy polypeptide C (Fc fusion)
chain: B1 chain with L31F, E47V, R53K, T98S
B5: Decoy polypeptide G (Fc fusion)
chain: B1 chain with L31F, I36V, Q37L, E47V, D54Q, G66T
B6: Decoy polypeptide F (Fc fusion)
chain: B1 chain with L30H, L31F, E47V, R53K, P56H, T98S
B7: Decoy polypeptide D (Fc fusion)
chain: B1 chain with L31F, E47V, R53K, P56H, T98S
B8: Decoy polypeptide L (Fc fusion)
chain: B1 chain with I6L, L31F, V33P, E47V, R53K, T98I
B9: Decoy polypeptide S (Fc fusion)
chain: EDELQVIQPEKSVSVAAGESATLRCAMTSLIPVGPIMWFRGAGAGRELIYNQKEGHFPRVTTVSELTKRNNLDFSISISNITPADAGTYYCVKFRKGSPDDVEFKSGAGTELSVRAKPSDKTHTCPPCPAPEAAGAPSVFLFPPKPKDTLMISRTPEVTCVVVDVSHEDPEVKFNWYVDGVEVHNAKTKPREEQYASTYRVVSVLTVLHQDWLNGKEYKCKVSNKALPAPIEKTISKAKGQPREPQVYTLPPSREEMTKNQVSLTCLVKGFYPSDIAVEWESNGQPENNYKTTPPVLDSDGSFFLYSKLTVDKSRWQQGNVFSCSVMHEALHNHYTQKSLSLSPG
notes: also called wild type SIRPβ1
B10: Decoy polypeptide T (Fc fusion)
chain: EEELQVIQPDKSISVAAGESATLHCTVTSLIPVGPIQWFRGAGPGRELIYNQKEGHFPRVTTVSDLTKRNNMDFSIRISNITPADAGTYYCVKFRKGSPDHVEFKSGAGTELSVRAKPSDKTHTCPPCPAPEAAGAPSVFLFPPKPKDTLMISRTPEVTCVVVDVSHEDPEVKFNWYVDGVEVHNAKTKPREEQYASTYRVVSVLTVLHQDWLNGKEYKCKVSNKALPAPIEKTISKAKGQPREPQVYTLPPSREEMTKNQVSLTCLVKGFYPSDIAVEWESNGQPENNYKTTPPVLDSDGSFFLYSKLTVDKSRWQQGNVFSCSVMHEALHNHYTQKSLSLSPG
notes: also called wild type SIRPβ2
B11: Decoy polypeptide R (Fc fusion)
chain: B1 chain with I6M, I27V, I36V, Q37L, R53K, D54E, P56H, G66L, T98S, D101N
notes: also called wild type SIRPγ
B12: Decoy polypeptide Q (Fc fusion)
chain: B10 chain with V6I, V27I, I31F, E47V, K53R, E54Q, H56P, L66T, V92I, H101D
B13: Decoy polypeptide P (Fc fusion)
chain: B9 chain with V6I, M27I, I31F, M37Q, E47V, K53R, E54Q, H56P, L66T, V92I
B14: Decoy polypeptide U (Fc fusion)
chain: EEELQIIQPDKSVLVAAGETATLRCTITSLFPVGPIQWFRGAGPGRELIYNQREGPFPRVTTVSDTTKRNNMDFSIRIGAITPADAGTYYCVKFRKGSPDDVEFKSGAGTELSVRAKPSDKTHTCPPCPAPEAAGAPSVFLFPPKPKDTLMISRTPEVTCVVVDVSHEDPEVKFNWYVDGVEVHNAKTKPREEQYASTYRVVSVLTVLHQDWLNGKEYKCKVSNKALPAPIEKTISKAKGQPREPQVYTLPPSREEMTKNQVSLTCLVKGFYPSDIAVEWESNGQPENNYKTTPPVLDSDGSFFLYSKLTVDKSRWQQGNVFSCSVMHEALHNHYTQKSLSLSPG
notes: positive control
B15: Decoy polypeptide A (Fc fusion)
chain: B1 chain with L31F, I36V, Q37L, E47V, D54Q, G66T, V92I, T98S, D101N
notes: expressed in Expi293 cells
B16: Decoy polypeptide E (Fc fusion)
chain: B1 chain with L31F, V42A, E47V, V92I
B17: Decoy polypeptide N (Fc fusion)
chain: B1 chain with I6M, L31F, V42A, E47V, V92I, T98I
B18: Decoy polypeptide M (Fc fusion)
chain: B1 chain with L31F, V33I, Q37L, E47V, R53K, T98S
B19: Decoy polypeptide I (Fc fusion)
chain: B1 chain with L31F, E47V, D54E, T98S
B20: Decoy polypeptide K (Fc fusion)
chain: B1 chain with I27L, Q37L, E47V, T98N

These binders were tested against T2, human CD47 (human, UniProt Q08722 19-135) (assay: SPR; ratio against decoy polypeptide R (wild type SIRPγ D1 domain)).
T2 construct: Soluble analyte in SPR; also called hCD47
Description: (§1) The binding affinities each decoy polypeptides for CD47 from various species (e.g., human CD47, cynomolgus monkey CD47, and mouse CD47) were determined using indirect capture via biotinylated Protein A (via NLC chip). All experiments were performed at 25° C. using a Surface Plasmon Resonance (SPR)-based ProteOn XPR36 biosensor (BioRad, Inc., Hercules, Calif.). The running buffer was PBS at pH 7.4 with 0.01% Tween-20 (PBST+). All analytes were used at their nominal concentrations as determined by A₂₈₀ absorbance and using their molar calculated extinction coefficients.
(§2) As a first step, 15 μg/mL biotinylated protein A (Thermofisher) was injected at 30 μL/min for 120 seconds over the NLC chip to obtain an immobilization response of about 1000-1200 RUs. Next, decoy polypeptides (about 100-160 nM) were injected for 80 seconds at 30 μL/min. The CD47 analytes (from human, cynomolgus monkey, and mouse) were subsequently injected in a “one-shot” kinetic mode at nominal concentrations of 100 nM, 33 nM, 11 nM, 3.7 nM, 1.2 nM, and 0 nM. Association times were monitored for 60 seconds at 25 μL/min, and dissociation times were monitored for 500 seconds. The surfaces were regenerated with a 2:1 v/v blend of Pierce IgG elution buffer/4M NaCl. Biosensor data were double-referenced by subtracting the interspot data (containing no immobilized protein) from the reaction spot data (immobilized protein) and then subtracting the response of a buffer “blank” analyte injection from that of an analyte injection. Double-referenced data were fit globally to a simple Langmuir model and the KD value was calculated from the ratio of the apparent kinetic rate constants (KD=kd/kₐ).

T2 sequence (Q08722 other isoform, or with tags, fused parts or gaps limits assumed): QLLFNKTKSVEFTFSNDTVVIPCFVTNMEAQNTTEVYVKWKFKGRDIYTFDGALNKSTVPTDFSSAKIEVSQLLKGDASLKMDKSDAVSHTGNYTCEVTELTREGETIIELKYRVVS

Fold improvement in KD vs wild type [fold]	Binder
7960	B1
6840	B2
4530	B3
9010	B4
1400	B5
2490	B6
1220	B7
545	B8

Each binder was assayed against T3, cynomolgus monkey CD47 (cynomolgus monkey, UniProt A0A2K5X523 19-135) (assay: SPR, decoy captured on biotinylated Protein A (NLC chip), CD47 as analyte).
T3 construct: Soluble analyte in SPR; construct not described; also called Cyno CD47

Binder	binding result
B9	no binding (tested: CD47 analyte up to 100 nM)
B10	no binding (tested: CD47 analyte up to 100 nM)
B11	no binding (tested: CD47 analyte up to 100 nM)

The binders below were run against T1, mouse CD47 in the same assay as above.

Binder	binding result
B9	no binding (tested: CD47 analyte up to 100 nM)
B10	no binding (tested: CD47 analyte up to 100 nM)
B11	no binding (tested: CD47 analyte up to 100 nM)

The binders below were run against T2, human CD47 in the same assay as above.

Binder	binding result
B9	no binding (tested: CD47 analyte up to 100 nM)
B10	no binding (tested: CD47 analyte up to 100 nM)

The binders below were run against T3, cynomolgus monkey CD47 (assay: SPR, decoy captured on biotinylated Protein A, CD47 as analyte, 25 C).
Description: as §1, §2

Kd [nM]	Binder
0.106	B12
0.334	B13
0.224	B14
0.33	B1
0.274	B4

Each binder was assayed against T1, mouse CD47 in the same assay as above.
Description: as §1, §2

Kd [nM]	Binder
24.1	B12
146	B13
7.82	B14
1.3	B1
0.905	B4

The binders below were run against T2, human CD47 in the same assay as above.
Description: as §1, §2

Kd [nM]	Binder
0.0785	B12
0.288	B13
0.193	B14
2190	B11
0.398	B1
0.243	B4

These binders were tested against T2, human CD47 (assay: SPR; the reference itself (wild type SIRPγ D1 domain)).

Fold improvement in KD vs wild type [fold]	Binder
1	B11

Molecular target: T2, human CD47
Assay: SPR, decoy captured on biotinylated Protein A, CD47 as analyte, 25 C
Remark: another data set of the same source
Description: as §1, §2

Kd [nM]	Binder
0.213	B12
0.35	B13
2190	B11
0.275	B1
0.32	B2
0.483	B3
0.243	B4
1.56	B5
0.881	B6
1.8	B7
74.8	B15
4.02	B8

Molecular target: T2, human CD47
Assay: SPR, decoy captured on biotinylated Protein A (NLC chip), CD47 as analyte
Remark: another data set of the same source
Description: as §1, §2

Binder	binding result
B16	no binding (tested: CD47 analyte up to 100 nM)
B17	no binding (tested: CD47 analyte up to 100 nM)
B18	no binding (tested: CD47 analyte up to 100 nM)
B19	no binding (tested: CD47 analyte up to 100 nM)
B20	no binding (tested: CD47 analyte up to 100 nM)

Reference: US20210347848A1 (ALX ONCOLOGY, published 2021)
